US20130295112A1 (AbbVie / Abbott, published 2013)

T1: human neurotrophin 3 (NT3) (human, UniProt P20783 139-257)
T1 construct: Bought protein coated on ELISA plates
T1 sequence (looked up): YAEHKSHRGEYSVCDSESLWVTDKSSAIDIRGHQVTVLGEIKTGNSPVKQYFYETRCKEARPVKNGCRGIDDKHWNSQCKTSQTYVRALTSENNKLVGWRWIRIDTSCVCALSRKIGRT

T2: human neurotrophin 4 (NT4) (human, UniProt P34130 81-210)
T2 construct: Bought protein coated on ELISA plates
T2 sequence (looked up): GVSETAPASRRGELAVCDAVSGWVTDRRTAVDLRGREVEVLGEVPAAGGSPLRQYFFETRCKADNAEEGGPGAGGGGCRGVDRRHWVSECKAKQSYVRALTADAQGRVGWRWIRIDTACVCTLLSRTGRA

T3: human brain-derived neurotrophic factor (BDNF) (human, UniProt P23560 129-247)
T3 construct: Bought protein coated on ELISA plates; also called human BDNF
T3 sequence (looked up): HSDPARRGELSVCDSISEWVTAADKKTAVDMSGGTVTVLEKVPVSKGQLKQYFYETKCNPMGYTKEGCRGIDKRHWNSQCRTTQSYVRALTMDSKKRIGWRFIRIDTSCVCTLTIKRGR


Key:
[1] = target: recombinant human beta nerve growth factor (human) (UniProt P01138); assay: cell-based or functional assay
recombinant human beta nerve growth factor (human), sequence (P01138 122-241 limits assumed): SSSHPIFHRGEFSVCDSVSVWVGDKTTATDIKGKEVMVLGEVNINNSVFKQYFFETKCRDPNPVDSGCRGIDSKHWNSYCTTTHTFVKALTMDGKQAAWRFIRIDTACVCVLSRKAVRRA

[2] = target: T4, recombinant rat beta nerve growth factor (rat, UniProt P25427 122-241); assay: cell-based or functional assay
T4 sequence (P25427 122-241 limits assumed): as the sequence (P01138 122-241 limits assumed) above, with S3T, I6V, R9M, M37T, D60A, D65E, M92T, G94D, V117A, A120G counted along it

[3] = target: T1, human neurotrophin 3 (NT3); assay: ELISA, plates coated with human NT3, PG110 titrated, fluorescence read-out
Experimental: (§1) The selectivity profile of PG110 binding to human neurotrophins was determined using an Enzyme-Linked ImmunoSorbent Assay (ELISA) binding assay. ELISA plates were coated with 100 ng/well of either human NGF (R&D Systems, Cat. No. 256-GF), brain-derived neurotrophic factor (BDNF) (R&D Systems, Cat. No. 248-BD), neurotrophin 3 (NT3) (R&D Systems, Cat. No. 267-N3) or neurotrophin 4 (NT4) (R&D Systems, Cat. No. 268-N4). PG110 was added to neurotrophin-coated wells in the concentration range 3 pM-3 nM. After washing (PBS in 0.5% (v/v) Tween 20, pH 7.3), PG110 binding was detected using a biotinylated anti-human IgG antibody (Rockland Immunochemical Inc., Cat. No. 609-1602) coupled with streptavidin-linked alkaline phosphatase (Sigma Aldrich, Cat. No. S2890), followed by development of a color reaction by addition of 4-methylumbelliferyl phosphate (Sigma Aldrich, Cat. No. M3168). The reaction product was quantified using a fluorimeter (excitation at 360 nm; emission at 440 nm).

[4] = target: T4, recombinant rat beta nerve growth factor; assay: SPR (BIAcore), rrNGF immobilised on CM5 (60 RU), PG110 as analyte, 37 C, 1:1 Langmuir, mean of 3
From the text: BIAcore analysis was used to evaluate the binding kinetics of the interaction between PG110 and either recombinant rat NGF (rrNGF) or recombinant human NGF (rhNGF).
Recombinant human beta nerve growth factor (rhNGF) (R&D Systems, Cat. No. 256 GF/CF) or recombinant rat beta nerve growth factor (rrNGF) (R&D Systems, Cat. No. 556 GF/CF) was immobilized covalently on CM5 sensor chips (GE Healthcare, formerly Biacore AB, Uppsala, Sweden) via primary amine groups using the amine coupling kit (GE Healthcare), with HBSEP (10 mM 4-(2-hydroxyethyl)-1-piperazineethanesulfonic acid (HEPES), 150 mM NaCl, 3 mM ethylene-diamine-tetraacetic acid (EDTA) and 0.005% Tween® 20, pH 7.4) as running buffer. The sensor chip surface was activated by injection of a mixture of 400 mM N-(3-Dimethylaminopropyl)-N′-ethylcarbodiimide (EDC) and 100 mM N-Hydroxysuccinimide (NHS) (1:1, v/v) for 7 minutes at a flow rate of 10 μl/min. β-NGF (rh or rr) was diluted to 200 ng/ml in 10 mM sodium acetate pH 4.0 and the diluted solution was injected over the activated surface for various times to yield different surface densities. For quantitative interaction analyses, a surface density of 60 RU was prepared by injection of 50 μl diluted β-NGF (contact time 5 minutes). Non-reacted NHS esters were deactivated with 70 μl (contact time 7 minutes) ethanolamine solution (1 M, pH 8.5).

[5] = target: T2, human neurotrophin 4 (NT4); assay: ELISA, plates coated with human NT4, PG110 titrated, fluorescence read-out
Experimental: as §1

[6] = target: T4, recombinant rat beta nerve growth factor; assay: cell-based or functional assay; remark: listed apart in the source
[7] = target: T3, human brain-derived neurotrophic factor …; assay: ELISA, plates coated with human BDNF, PG110 titrated, fluorescence read-out
Experimental: as §1

recombinant mouse NGF = recombinant mouse NGF (mouse, UniProt P01139 122-241, limits assumed); assay: cell-based or functional assay
recombinant mouse NGF, sequence (P01139 122-241 limits assumed): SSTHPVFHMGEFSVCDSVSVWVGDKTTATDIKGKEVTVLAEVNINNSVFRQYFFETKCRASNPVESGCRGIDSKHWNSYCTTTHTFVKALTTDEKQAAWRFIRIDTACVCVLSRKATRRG

[8] = target: T4, recombinant rat beta nerve growth factor; assay: cell-based or functional assay; remark: listed apart in the source

| Molecule | IC50, TF1 cell proliferation mediated by human NGF (MTT), geomean, n=3; Batch 1 [1] | IC50, TF1 cell proliferation mediated by human NGF (MTT), n=1; Batch 2 [1] | IC50, TF1 cell proliferation mediated by rat NGF (MTT), geomean, n=3; Batch 1 [2] | IC50, TF1 cell proliferation mediated by rat NGF (MTT), n=1; Batch 2 [2] | binding result [3] | Kd [4] | koff [4] | kon [4] | binding result [5] | IC50, TF1 cell proliferation mediated by rat NGF (MTT), geomean, n=2 [6] | binding result [7] | IC50, TF-1 cell proliferation stimulated by 10 ng/ml mouse recombinant NGF (MTT), geomean, n=3 (recombinant mouse NGF) | IC50, TF-1 cell proliferation stimulated by 10 ng/ml rat recombinant NGF (MTT), geomean, n=5 [8] |
| --- | --- | --- | --- | --- | --- | --- | --- | --- | --- | --- | --- | --- | --- |
| rat αD11 antibody (precursor of PG110) | 0.0637 µg/mL | 0.107 µg/mL | 0.0448 µg/mL | 0.0549 µg/mL |  |  |  |  |  |  |  |  |  |
| PG110 (humanized anti-NGF antibody, Hu-alphaD11 variable regions with Ser-to-Pro hinge-mutated human IgG4 constant region and human kappa light chain) (antibody, V domains shown, expressed in CHO cells; also called PG110 antibody; PG110 mAb) VH: EVQLVESGGGLVQPGGSLRLSCAASGFSLTNNNVNWVRQAPGKGLEWVGGVWAGGATDYNSALKSRFTISRDNSKNTAYLQMNSLRAEDTAVYYCARDGGYSSSTLYAMDAWGQGTLVTVSS VL: DIQMTQSPSSLSASVGDRVTITCRASEDIYNALAWYQQKPGKAPKLLIYNTDTLHTGVPSRFSGSGSGTDYTLTISSLQPEDFATYFCQHYFHYPRTFGQGTKVEIKR |  |  |  |  | no binding | 92 pM | 1.5e-05 s⁻¹ | 170000 M⁻¹ s⁻¹ | no binding | 0.0262 µg/mL | no binding | 0.0308 µg/mL | 0.0278 µg/mL |
